Measurements reported in IntAct's records for PubMed 24352239.

Molecular target: spt16_yeast SPT16 (UniProt P32558)
Sequence (P32558 whole entry): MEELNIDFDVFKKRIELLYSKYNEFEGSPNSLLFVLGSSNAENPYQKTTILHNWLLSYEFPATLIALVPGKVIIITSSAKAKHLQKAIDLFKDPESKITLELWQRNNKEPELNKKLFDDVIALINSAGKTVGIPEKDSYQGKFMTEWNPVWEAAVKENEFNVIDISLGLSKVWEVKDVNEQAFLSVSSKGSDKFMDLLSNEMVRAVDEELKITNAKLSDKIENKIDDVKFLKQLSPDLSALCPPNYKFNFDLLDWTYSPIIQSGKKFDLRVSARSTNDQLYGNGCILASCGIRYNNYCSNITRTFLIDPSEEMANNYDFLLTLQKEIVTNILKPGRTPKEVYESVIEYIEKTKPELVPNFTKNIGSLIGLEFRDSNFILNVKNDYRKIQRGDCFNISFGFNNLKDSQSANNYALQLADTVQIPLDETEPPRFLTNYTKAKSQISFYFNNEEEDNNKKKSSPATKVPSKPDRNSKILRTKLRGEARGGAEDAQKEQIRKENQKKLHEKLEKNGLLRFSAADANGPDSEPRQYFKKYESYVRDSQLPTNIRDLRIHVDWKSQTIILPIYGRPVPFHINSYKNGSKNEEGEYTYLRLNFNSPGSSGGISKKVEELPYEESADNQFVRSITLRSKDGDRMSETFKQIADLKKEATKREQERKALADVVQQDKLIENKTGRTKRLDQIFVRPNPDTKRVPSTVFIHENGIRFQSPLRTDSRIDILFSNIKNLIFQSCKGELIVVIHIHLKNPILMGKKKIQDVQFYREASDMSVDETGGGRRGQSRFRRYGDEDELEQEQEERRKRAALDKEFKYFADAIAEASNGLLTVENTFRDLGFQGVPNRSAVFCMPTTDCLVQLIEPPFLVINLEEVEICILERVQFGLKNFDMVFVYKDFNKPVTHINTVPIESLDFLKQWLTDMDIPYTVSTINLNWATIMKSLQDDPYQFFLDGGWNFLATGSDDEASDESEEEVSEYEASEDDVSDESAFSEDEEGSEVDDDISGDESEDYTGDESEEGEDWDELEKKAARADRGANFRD

Histone H2A type 3 (Homo sapiens) (from UniProt Q7L7L0) Q105A
effect of a mutation on the interaction: decreasing interaction strength
